How the values were obtained:
Experiment in all cases: FACS, transfected 293T
[1] = target: T1, muCDH19(44-362)::huCDH19(365-772), Flag-tagged, on 293T cells (human/mouse chimera)
T1 construct: also called Hu EC4-5; C137917
T1 chain: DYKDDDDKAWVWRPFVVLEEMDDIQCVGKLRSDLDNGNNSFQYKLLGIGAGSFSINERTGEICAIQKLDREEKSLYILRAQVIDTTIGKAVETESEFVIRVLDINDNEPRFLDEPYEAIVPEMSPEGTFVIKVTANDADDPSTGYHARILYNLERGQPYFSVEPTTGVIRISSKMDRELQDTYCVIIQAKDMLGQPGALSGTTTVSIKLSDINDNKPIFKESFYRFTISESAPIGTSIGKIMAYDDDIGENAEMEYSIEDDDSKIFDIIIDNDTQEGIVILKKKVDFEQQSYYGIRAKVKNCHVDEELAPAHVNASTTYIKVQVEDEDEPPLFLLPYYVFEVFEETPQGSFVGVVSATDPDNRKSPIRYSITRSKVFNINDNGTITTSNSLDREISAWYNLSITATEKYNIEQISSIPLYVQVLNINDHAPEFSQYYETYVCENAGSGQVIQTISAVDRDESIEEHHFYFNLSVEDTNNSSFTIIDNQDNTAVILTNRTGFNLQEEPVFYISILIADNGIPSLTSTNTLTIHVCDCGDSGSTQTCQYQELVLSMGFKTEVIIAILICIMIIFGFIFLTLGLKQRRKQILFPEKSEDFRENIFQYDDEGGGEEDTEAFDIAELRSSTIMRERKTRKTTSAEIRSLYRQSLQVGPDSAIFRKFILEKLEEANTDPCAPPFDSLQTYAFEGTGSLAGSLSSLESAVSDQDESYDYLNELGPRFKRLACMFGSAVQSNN
Excerpt: (§1) The experiment included assaying the anti-CDH19 antibodies against mouse Cadherin19 to determine suitability for binning on these human/mouse chimeras.

[2] = target: T2, muCDH19(44-139)::huCDH19(142-249)::muCDH19(248-770), Flag-tagged, on 293T cells (human/mouse chimera)
T2 construct: also called Hu EC2; C137913
T2 chain: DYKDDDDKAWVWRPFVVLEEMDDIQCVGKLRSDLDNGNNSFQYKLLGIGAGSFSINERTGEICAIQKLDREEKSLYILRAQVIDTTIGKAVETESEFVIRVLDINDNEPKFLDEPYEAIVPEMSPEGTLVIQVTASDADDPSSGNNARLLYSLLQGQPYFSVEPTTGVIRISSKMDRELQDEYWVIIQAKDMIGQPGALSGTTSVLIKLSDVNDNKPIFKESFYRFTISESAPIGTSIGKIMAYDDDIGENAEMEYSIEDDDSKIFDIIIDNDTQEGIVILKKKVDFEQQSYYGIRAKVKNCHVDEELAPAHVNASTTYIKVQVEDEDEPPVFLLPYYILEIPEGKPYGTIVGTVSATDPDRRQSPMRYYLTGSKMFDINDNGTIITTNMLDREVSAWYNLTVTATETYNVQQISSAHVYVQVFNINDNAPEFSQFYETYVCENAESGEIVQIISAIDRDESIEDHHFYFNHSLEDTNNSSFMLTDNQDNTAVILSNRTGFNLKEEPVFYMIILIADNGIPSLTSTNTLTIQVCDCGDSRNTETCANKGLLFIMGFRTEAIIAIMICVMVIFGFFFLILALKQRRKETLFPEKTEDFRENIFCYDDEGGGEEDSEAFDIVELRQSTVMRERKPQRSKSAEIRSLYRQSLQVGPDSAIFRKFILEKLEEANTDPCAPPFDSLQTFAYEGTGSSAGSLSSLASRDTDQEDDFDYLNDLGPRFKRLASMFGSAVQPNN
Excerpt: as §1

[3] = target: T3, muCDH19(44-461)::huCDH19(464-772), Flag-tagged, on 293T cells (human/mouse chimera)
T3 construct: also called Hu EC5; C137915
T3 chain: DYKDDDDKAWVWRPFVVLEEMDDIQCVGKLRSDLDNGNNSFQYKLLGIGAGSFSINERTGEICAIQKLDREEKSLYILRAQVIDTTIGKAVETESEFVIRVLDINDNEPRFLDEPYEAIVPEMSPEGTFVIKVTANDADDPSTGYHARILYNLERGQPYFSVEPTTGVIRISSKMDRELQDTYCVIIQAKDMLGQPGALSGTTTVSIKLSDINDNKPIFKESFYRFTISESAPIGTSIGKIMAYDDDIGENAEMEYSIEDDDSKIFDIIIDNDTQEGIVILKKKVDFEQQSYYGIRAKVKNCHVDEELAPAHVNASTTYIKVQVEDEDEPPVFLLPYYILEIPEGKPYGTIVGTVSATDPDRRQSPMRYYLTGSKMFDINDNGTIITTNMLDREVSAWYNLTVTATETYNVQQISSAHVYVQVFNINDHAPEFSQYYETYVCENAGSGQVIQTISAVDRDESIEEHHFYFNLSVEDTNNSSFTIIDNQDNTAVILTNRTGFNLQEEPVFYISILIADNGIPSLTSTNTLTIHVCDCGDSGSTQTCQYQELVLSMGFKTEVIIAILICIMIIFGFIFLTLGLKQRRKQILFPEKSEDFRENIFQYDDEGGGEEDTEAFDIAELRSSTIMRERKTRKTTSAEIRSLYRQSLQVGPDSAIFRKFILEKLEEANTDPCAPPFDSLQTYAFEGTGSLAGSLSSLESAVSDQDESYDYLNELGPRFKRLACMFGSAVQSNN
Excerpt: as §1

Measured: binding result

B1: anti-CDH19 antibody 2G6 (Ab ID 13588) (antibody, human IgG1, lambda, V domains shown)
VH: QVQLVESGGGVVQPGRSLRLSCAASGFTFSSYGMHWVRQAPGKGLEWVAFIWYDGSNKYYADSVKDRFTISRDNSKNTLYLQMKSLRAEDTAVYYCARRAGIIGTIGYYYGMDVWGQGTTVTVSS
VL: SYELTQPPSVSVSPGQTASITCSGDRLGEKYTCWYQQRPGQSPLLVIYQDTKRPSGIPERFSGSNSGNTATLTISGTQAMDEADYYCQAWDSSTVVFGGGTKLTVLG
binds: all assays above
